Test results from a protein production outcome set (Wang et al. 2014).

Assay: label from the status in PepcDB records

For “SYASETASTQGLPALELDPEELLAQVQLLRAAVEGSRRESRELVGALERERRLNLEMRQRFERQFAAVSDQLLQLNHLQKESEALLQSLQEQLNEAELQKNAAQRELACVQRQLSLARAEADAGKRVLTTIAEKEALLRKTSQANADLQQIVMHLQAELRNSELQPSTSNASEERLHEAEIPSLADRDAYQTLQQTIEKLSAERDMWYHECARAKEESLRLQQDAERLRGLLDEQQRVHTTTQTLLQDRHLLMRRIIAALAEKYLMEKLPNQHYTQEIDSSPFQARGGTSVQEAHKHERLRRARSF”, the protein production was “not failed”.

In the case of “MGLGMEIGKLIVAFLVLINPFSALSLYLDLTNGHSTKERRKVARTAAVAVFAVIAVFALIGGALLKVLGISVGSFQVGGGILVLLIAISMMNGNDNPAKQNLGAQPETGQARPARNAGAIAVVPIAIPITIGPGGISTVIIYASAAKTYSDIALIIAAGLVVSAICYAILIVAGKVSRLLGATGLTILNRIMGMMLAAVSVEIIVSGLKTIFPQLAG”, the protein production was “failed”.

In the case of “QGYQVTKLYVMDRDGTNARLLTEGFDRDVQNPTFTADGEHIVFRYVDEGSTKIGRVALDGGRRVVAEHVGGTSIGRPYTSGSFSLASNGRVAFTHATPQRPADVAVAQAGREAQVLTALNDDLFGQVDLGSVEQITYESSHDGRTIEGWIVTPPGFDASQEYPLVLEIHGGPFASYGPYFSAEVQLYAAAGYVVLYTNPRGSTSYGQDFGNAIHHDYPGHDYDDLMSGVDAVLERGYVDADRLYVTGGSGGGVLTSWIVGHTDRFRAAVAAKPVINWYSWALTADMYPYGVKYWFPGLPWNHEEHYMDRSPLSYVDNVTTPTMLLTGANDYRTPMSESEQFYQALKLREVETALVRVPGASHSIAARPSHLAAKAAHVLEWFRRHGGPTPEQ”, the protein production was “failed”.

In the case of “MANRSHHNAGHRAMNALRKSGQKHSSESQLGSSEIGTTRHVYDVCDCLDTLAKLPDDSVQLIICDPPYNIMLADWDDHMDYIGWAKRWLAEAERVLSPTGSIAIFGGLQYQGEAGSGDLISIISHMRQNSKMLLANLIIWNYPNGMSAQRFFANRHEEIAWFAKTKKYFFDLDAVREPYDEETKAAYMKDKRLNPESVEKGRNPTNVWRMSRLNGNSLERVGHPTQKPAAVIERLVRALSHPGSTVLDFFAGSGVTARVAIQEGRNSICTDAAPVFKEYYQKQLTFLQDDGLIDKARSYEIVEGAANFGAALQRGDVAS”, the protein production was “not failed”.

For “MAFIIDLLLLCCSAFMSSCEVAYFSLKPIDLQNIRERNHSSDIALSNLLDNSNQLLATILIGNNVINVAIVILSNYAIEQTFVFSSPIIGFLIQTILLTTVLLLFGEILPKVYARKNPLQYSRFSAAAMSVIYKILSPFSKLLVKSTGIVTRGISKKKYDMSVDELSKAVALTTTEGEPEEKEMINEIIKFYNKTACEIMVPRIDIVDVDLSWPFRKMLDFVVSSGYSRLPVSEGSEDNIKGVIYIKDLIPHMDKGDEFDWHPLIRKAYFVPENKRIDDLLEEFRANKVHVSIVVDEFGGTCGLITMEDILEEIVGEITDEYDEEELPFKVLGDGSYLFEGKTSLSDVRHYLDLPENAFGELGDEVDTLSGLFLEIKQELPHVGDTAVYEPFRFQVTQMDKRRIIEIKIFPFERTWEVE”, the protein production was “failed”.

In the case of “ALVNIVVTNRCDLSCFYCFFYAERAGYIYEPSIEQIKFMVRQVARQRQGSDVHVNIQITGGEPTVREDLVDVVKAIREAGAHYIQLNTNGINVARRYLDNPPGAIDYVRSLREAGVSVVYMSFDGVTPKVNWKNHYEAPFALKAFQEGGLDNVVLVPTVIRTINDHEVGDIIRFAGKHIDVVRGVNFQPVSLTGM”, the protein production was “failed”.

With “MSEKPWVSTQPLVTKRGLPLNIDRDIAYRPASAVSLSEVAQFITRETGLPVVVAPDALNPSILSSRPGNSGAAAAPPAVTMSNPDNLAALMPTGLAGSLPSGARSLESELLSGTPGLISGIKFSGPVSALLNQVTSRLGLSWHYDPQLQGARITYFDTRTFDVWAFGDDQVIESVVKSGLITSTGSGSNGSGGTSSGTGASGDSGSNQSTTVQIKTSLLSDIENNVKAMLSTQPAGRIFLSRSTGTLTVSDRPEVLNRIASYLQSTNRNITRQVLFNVKIFEVNFTDRDQTAVNWKAVYKSVSGRWGLSLANKVAGISTDAISGSVSILDTSSSPWAGSSAVIQALSEQGRISDVRSPSITTLNLQPAPIQIGNVKSYVASSSTTTTASVGSSTSLTPATITSGFNMMLLPKIIDRDNMLLMISISMSSKPTFTTFTSNGSSVQTADFDTKNAAPKVLLRSGQTLVLTGFEENTENADKTGVGDASFFGLGGSRTRSSLEHHHHHH” the protein production was “failed”.

In the case of “MSFSDHFSAVAASYAKARPRYPQRWFRYLARIVPDRQRVWDCATGNGQAAIALAEYFSEVIGSDASAAQVRQARSHPRVQYLVFPAEATPLAPASLDLITVAQAAHWFDLPQFYIEAQRLLRPGGVIALWGYGLGSLNPAIDHVFNHFYRDWLDPYWPPERQWVEQAYEGLSFPFEPLPTPTFSMQCDWTLFDLLAYLRTWSGVQQFQRQRGFDPVWAIAPELQRVWGDPQRYRRITWPLFAKVGRWQPLEHHHHHH”, the protein production was “not failed”.

With “SQEANYGALLRELCLTQFQVDMEAVGETLWCDWGRTIRSYRELADCTWHMAEKLGCFWPNAEVDRFFLAVHGRYFRSCPISGRAVRDPPGSILYPFIVVPITVTLLVTALVVWQSKRTEGIV” the protein production was “failed”.

For “MIHVREFQASDSDVVLHLLDLKDIINSSSFSEKVFQLSESGDFLGLVAEANQSGKHQVVGCAFLRLLETISRGLHCQIEELAIDKAWLHQGVGKSLMETATSWAKERGVGDIYVDSPYASIAVKEGIDSVFVRDEVLEVAQQYEAEKEELQESLKKQYNTTISKLEKEYEAKKQQQDETIHNLQTQLEDATQYLEEQQAEENELLNIDPSSPRNHTGPYPRGRGFWGTLCFPIRKTCGPGSCLRLPSGPASVRGSTDRSN”, the protein production was “not failed”.

With “MKLSQQSQAIIESAIQKAINKYTCGCEQTIVTDIHIQPNQNSGELFIYDDEDEELSSVTIDEWTAYEGDDFCEDAERIFRTVLCRMKENGSFDKLTILKPYSFVLVDEDKETISELLLVDDDTLLVNDELLKGLDKELDDFLKDLLEKLEHHHHHH” the protein production was “not failed”.

For “MRAGFFVGILGLAGAILQGANVTEAVGSELVLFPSGGGLSAIAAIVALLTAAVLVAVGIFTGYPIATAFTVTGAVVGVGLAMGGQPATAKYIEIVSLWVLTPFVGGGIAFGTAWSLRHEATTEERLVPLLGGLVGVILANIEFVLLAPGSEQASVARAVARAAGTPIFPSMVVVTLLIGVLAGGLLYLDIRADAAAGQRHFLLVMGGLVAFSAGGSQVGLALGPLVPLLGEGPTAAIPITGVLLFGGLGLLVGSWTGAPRMIKALAQDYSSLGPRRSIGALIPSFIIAQAAVFFGIPVSFNEIIVSAIVGSGAAAGGGEVSREKMGKTVLAWIGSLALAFALSYGLFWIIDAAL”, the protein production was “failed”.

In the case of “LDAILIADDEGCYVDVNAAACELFGVSREELLASTIADFAAPEFNFTQAWQQFREQEQMSGEFQLHRPNGTVRATEFAAVANFIPHRHLSIIRDVSDRQQAKANLQNSEQRLQLALSASS”, the protein production was “failed”.

For “MQDFKKLPTVLTAEELIDKIFRRAARVEGRNPKEKALNKLATISNVSRDYFGKIIGAHPSYENLPDFYREMVDVVVGIRQLKKSLVALKWADGMIQKVVSRAVREVKGGKNPSAVVKSAYGRVASIIEQIDDELRFLNDAKNRMREIPILQDLPTIVVAGYPNVGKSSLVARISTVKPEVASYPFTTKKINLGFAEFAGKRVQIIDTPGLLDRPLSKRNRIERRAVLALKHLADIILFVIDPTETCGYSLEKQLSLLEEIKGYFAKPTVEVYSKADMHDRRDRQAYSAVTGEGIDELIKEIEKMVKIHSQTSTVIAPSGQTSTQEQHSLEHHHHHH”, the protein production was “failed”.

In the case of “VADTDGHYRVRAITEISSFNETLGATFSDKEFDTIGGLVINKFGRLPKNGESITIEGFNFTVTRADSRRLHLLKVERIEPGVVEDADSHDSV”, the protein production was “not failed”.

For “MKELLKLDFFIQKKYIKSSIIVFLFLGITFALTQGMNYLYTMGTFIVFYLTIIPIEVERKSKFNIYLNSLPNKKSNYIYSKYLSTLIYIIVVNLFLYLFCTILGVISGSDFTLTLRAILPNIIVQLFYVSLTLPVYMIISHKFYRVVNIIFTILIMMISSILFNSLENENLQVLFNITNGVYGLAFGILALIISLIVSLNIYKKSEVS”, the protein production was “failed”.

For “MRGVFLDKDKIPYDLVTKKLNEWYTSIKNDQVEQAEIIKTEVEKELLNMEENQDALLYYQLLEFRHEIMLSYMKSKEIEDLNNAYETIKEIEKQGQLTGMLEYYFYFFKGMYEFRRKELISAISAYRIAESKLSEVEDEIEKAEFFFKVSYVYYYMKQTYFSMNYANRALKIFREYEEYAVQTVRCQFIVAGNLIDSLEYERALEQFLKSLEISKESNIEHLIAMSHMNIGICYDELKEYKKASQHLILALEIFEKSKHSFLTKTLFTLTYVEAKQQNYNVALIYFRKGRFIADKSDDKEYSAKFKILEGLFFSDGETQLIKNAFSYLASRKMFADVENFSIEVADYFHEQGNLMLSNEYYRMSIEARRKIKKGEIIDENQPDSIGSSDFK”, the protein production was “failed”.

In the case of “MIGKRFFQTTSKKIAFAFDIDGVLFRGKKPIAGASDALKLLNRNKIPYILLTNGGGFSERARTEFISSKLDVDVSPLQIIQSHTPYKSLVNKYSRILAVGTPSVRGVAEGYGFQDVVHQTDIVRYNRDIAPFSGLSDEQVMEYSRDIPDLTTKKFDAVLVFNDPHDWAADIQIISDAINSENGMLNTLRNEKSGKPSIPIYFSNQDLLWANPYKLNRFGQGAFRLLVRRLYLELNGEPLQDYTLGKPTKLTYDFAHHVLIDWEKRLSGKIGQSVKQKLPLLGTKPSTSPFHAVFMVGDNPASDIIGAQNYGWNSCLVKTGVYNEGDDLKECKPTLIVNDVFDAVTKTLEKYA”, the protein production was “not failed”.

For “MALMSDKFLSIVIPAYNSEKYIEKNLMFLSRQTSNNFEVIVVDDGSTDNTCEVSEACLENFKINHRVIRCEENRGQSVARNIGINYSRGKYILFLDSDDFAENNLVQILERNMFNEPDIVFFDYKRIKEGDSVNVNIAQNFEFGKIKSGEEVFNAYKDNKIRLWTGSLVYNKEFLNKNKLRFLEGAHGAEDLNFIFKALLSSKKVRGIEDSLVFYCQRGDSLTNNPDIYKNITVVESMEDVAKFIDENKLDKKLKEAIEKEFTCEHIMYQILGYLNSETKKDTLSVLKNKNVKKYLKKATIKTNRYGRSMYTYMKMAAYFPNLFIKTYLKNTGKLEHHHHHH”, the protein production was “not failed”.

For “MNRRGGQTAFAAIARNERAIAAFIPYSSHLTDTTLITHGADLVRTWRVQGIAFESAEPELVSQRHEQLNGLWRAISCEQVALWIHCIRRKTQAGLDARYENPFCRALDASYNARLNARQAMTNEFYLTLVYRPGHAALGKRAHHGQAEVRRQLLAHVRRMDEIGSLIETTLRSHGENHEQAITVLGCETDSAGRRYSRTLTLLEFLLTGHWQPVRVPAGPVDAYLGSSRILAGAEMMELRAPTCRRYAQFIDFKEYGTHTEPGMLNALLYEDYEYVITHSFSAVGKRQALAYLQRQRAQLANVQDAAYSQIDDLAHAEDALVNGDFVIGEYHFSMMILGADPRQLRRDVSSAMTRIQERGFLATPVTLALDAAFYAQLPANWAYRSRKAMLTSRNFAGLCSFHNFYGGKRDGNPWGPALSLLSTPSGQPFYFNFHHSGLDEDCRGQMMLGNTRIIGQSGSGKTVLLNFLLCQLQKFRSADADGLTTIFFDKDRGAEICIRALDGQYLRIRDGEPTGFNPLQLPCTDRNVMFLDSLLAMLARAHDSPLTSAQHATLATAVRTVLRMPASLRRMSTLLQNITQATSEQRELVRRLGRWCRDDGAGGTGMLWWVFDNPNDCLDFSRPGNYGIDGTAFLDNAETRTPISMYLLHRMNEAMDGRRFVYLMDEAWKWIDDPAFAEFAGDQQLTIRKKNGLGVFSTQMPSSLLGARVAASLVQQCATEIYLPNPRADRAEYLDGFKCTETEYQLIRSMAEDSHLFLVKQGRQAVVAQLDLSGMDDELAILSGNARNLRCFEQALALTRERDPNDWIAVFHRLRREASAGLR”, the protein production was “failed”.
